For 15 molecules, koff results are on record in patent US20260234247A1 (published 2026).

First the molecules themselves.
B1: LK-RB2-21 (antibody, human IgG4 S228P, kappa, V domains shown)
VH: EVQLVESGGDLVKPGGSLKLSCAASGFTFSSYGMSWVRQTPDKRLEWVATISSGGSYTYYPDSLKGRFTISRDNAKSTLYLQMSSLKSEDTAKYYCARPYYDYIFYAIDYWGQGTSVTVSS
VL: DIQMNQSPSSLSASLGDTITITCHASQNINVWLSWYQQKPGNIPKLLIYKASNLHTGVPSRFSGSGSGTGFTLTISSLQPEDIATYYCQQGQSYPLTFGGGTKLEIKR
B2: LK-RB2-20 (antibody, human IgG4 S228P, kappa, V domains shown)
VH: QVQLKQPGAERVKPGASVKMSCKASGYTFTRYWITWVKQRPGQGLEWIGDIYPGSATTNYNEKFKSKATLTEDTSSSTAYMQLSSLTSEDSAVYYCARSGDYSNSNYAMDYWGQGTSVTVSS
VL: NIEMTQSPKSMSMAVGERVTLSCKASENVGTYVSWYQQKPEQSPKLLIYGASNRNTGVPDRFTGSGSATDFTLTISSVQAEDLADYHCGQSYSYPFTFGSGTKLEIKR
B3: LK-RB2-24 (antibody, human IgG4 S228P, kappa, V domains shown)
VH: QIQLVQSGPEVKKPGETVKISCKASGYTFTTYGMSWVKQAPGKGLKWMGWLNIYSGVPAYADDFKGRFAFSLESSASTAYLQINNLKNEDTATYFCARRENYDGYGMDYWGQGTSVTVSS
VL: DIVMTQSPATLSVTPGDRVSLSCRASQSISDYLHWYQQKSHESPRLLIKYASQSISGIPSRFSGSGSGSDFTLSINSVEPEDVGVYYCQNGHSFPYTFGGGTKLEIKR
B4: LK-RB2-35 (antibody, human IgG4 S228P, kappa, V domains shown)
VH: EVQLQQSGPELVKPGASVKISCKASGYTFTDYNMHWVKQSHGKSLEWIGSIYPYNGGSDYNQKFKSKATLTVDNSSSTAYMELRSLTSEDSAVYYCASELTGLYAMDYWGQGTSVTVSS
VL: B3 VL with N90T
B5: LK-RB2-19 (antibody, human IgG4 S228P, kappa, V domains shown)
VH: QVQLQQPGAELVKPGASVKLSCKASGYTFTSYWMHWVKQRPGQGLEWIGMIHPNSGGTNYNEKFKSKATLTVDKSSSTAYMQFSSLTSEDSAVYYCARCTVVALYYALDYWGQGTSVTVSS
VL: QIVLSQSPAILSASPGEKVTMTCRATSRVSYIHWFQQKPGSSPKPWIYVTSNLASGVPARFSGSGSGTSYSLTISKLEAEDVATYYCQQWSTNPLTFGAGTKLELKR
B6: LK-RB2-22 (antibody, human IgG4 S228P, kappa, V domains shown)
VH: QIQLVQSGPELKKTGETVKISCKASGYTFTTYGMSWVKQAPGKGLKWMGWINIYSGVPTYADDFKGRFAFSLETSASTAYLQINNLKNEDTATYFCARRADYDGYYFDYWGQGTTLTVSS
VL: NIVMTQTPKFLLVSAGDRVTITCRASQSVTNDVAWYQQRPGQSLKLLIYYASNRYTGVPDRFTGSGYGTDFTFTISTVQAEDLAVYFCQQGYSSPFTFGSGTKLEIKR
B7: LK-RB2-23 (antibody, human IgG4 S228P, kappa, V domains shown)
VH: B6 VH with T14P, A100G
VL: NIVLIQSAATLSVTPGDSVSLSCRASQSLSNGLHWYQQKSHESPRLLIKYGSQSISGIPSRFSGSGSGTDFTLSINSVETEDFGMYFCQQSDSWPHTFGSGTKLEIKR
B8: LK-RB2-45 (antibody, human IgG4 S228P, kappa, V domains shown)
VH: B6 VH with T14P, A40T, K46Q, I53V, T74A, T93S, A100G, Y105H
VL: B3 VL with H34N, A51V, V83I, S93N, Y96L, I106L
B9: LK-RB2-17 (antibody, human IgG4 S228P, kappa, V domains shown)
VH: QIQLVQSGPELKKPGETVKISCKASGYTFTNYGMSWVKQAPGKGLQWMGWINTYSGVPTFADDFRGRFAFSLDTSASTAYLQINSLKNEDTAAYFCARRINWDGYAMDYWGQGTSVTVSS
VL: DSVMSQSPSSLAVSVGEKVTLSCKSSQSLLYSGNQKSYLAWYQQKPGQSPKLLIYWASSRESGVPDRFTGSGSGTDFTLTISSVKAEDLAVYYCQQYYSFPYTFGGGTKLEIKR
B10: LK-RB2-14 (antibody, human IgG4 S228P, kappa, V domains shown)
VH: QVQLKQSGPGLVQPSQSLSITCTVSGFSLTSYGVHWVRQSPGKGLEWLGVIWRGGSTDYNAAFMSRLSITKDNSKSQVFFKMNSLQADDTAIYYCAKNEGDSTVVAWYFDVWGTGTTVTVSS
VL: DIQMTQTTSSLSASLGDRVTISCSASQGISNYLNWFQQKPDGTVKLLIYYTSSLHSGVPSRFSGSGSGTDYSLTISNLEPEDIATYYCQQYSKLPLTFGAGTKLELKR
B11: LK-RB2-18 (antibody, human IgG4 S228P, kappa, V domains shown)
VH: EVQLQQSGPELVKPGTSVKISCKASGYTFTDYYMNWVKQSHGKSLEWIGDINPNNGGTSYNQKFKGKATLTVDKSSSTAYMELRSLTSEDSAVFYCARSGTTVVGTYWYFDVWGTGTTVTVSS
VL: DIQMTQSPASLSVSVGETVTITCRASENIYSNLAWYQQKQGKSPQLLVYGATNLADGVPSRFSGSGSGTQYSLKINSLQSEDFGSYYCQHFWDTPFTFGSGTKLEIKR
B12: LK-RB2-33 (antibody, human IgG4 S228P, kappa, V domains shown)
VH: EVQLQQSGVELVRPGALVKLSCKASGFNIKDYYMHWVKQRPEQGLEWIGWIDPEKGDTIYGPKFQGKASITADTSSNTAYLQLSSLTSEDTAVYYCSRGPNYGSSYAFAYWGQGTLVTVSA
VL: DVVMTQSHKFMSTSVGDRVTITCKASQDVSNAVAWYQQKPGQSPKLLIYSASYRYTGVPDRFTGSGSGTDFTFTISSMQAEDLAVYYCQQHYSLPWTFGGGTKLEIKR
B13: LK-RB2-8 (antibody, human IgG4 S228P, kappa, V domains shown)
VH: QIQLVQSGPELKKPGETVKISCKASGYSFASYGMGWVKQAPGKGLKWLGWINTHSGVPTYADDFKGRFAFSLETSASTAYLQINNLKNEDTATYFCAHYGRPWFPYWGQGTLVTVSA
VL: DIQMTQSPASLSASVGETVTITCRTSENIYSYLAWYQQKQGKSPQLLVYNAKSLAEGVPSRFSGSGSGTQFSLRINSLQPEDFGTYYCQQHYETPLTFGAGTKLELKR
B14: LK-RB2-16 (antibody, human IgG4 S228P, kappa, V domains shown)
VH: B13 VH with S28T, A30T, S31T, G42E, L48M, H54N, V57A, A61G, P105A
VL: B13 VL with T25A, Q37H, K42E, S53T, R74K, T85S, Q90H, E93N, T94I
B15: LK-RB1-39 (antibody, human IgG4 S228P, kappa, V domains shown)
VH: EVQLQQSGAELVRPGASVKLSCTASGFNIKDDYVHWVNQRPEQGLEWIGWIDPENGDTGYASKFQDKATITADTSSNTAYLHLSSLTSEDTAVYYCTTTRWTGSYWGQGTTLTVSS
VL: QIVLTQSPAIMSASPGEKVTITCSASSSVNYMHWFQQKPGSSPKLWIYSTANLASGVPARFSGSGSGTSYSLTISRMEAEDAATYYCQQRSSYPPTWTFGGGTKLEIKR

A word on the koff: it is a measure of how fast the partners let go of each other. High values mean fast dissociation, low ones slow dissociation.

Where a chain is given by its changes, count along the chain named.

In the first assay the target is T1, human LILRB2 (human, UniProt Q8N423 22-460, limits assumed).
T1 construct: also called hLILRB2
T1 sequence (Q8N423 22-460 limits assumed): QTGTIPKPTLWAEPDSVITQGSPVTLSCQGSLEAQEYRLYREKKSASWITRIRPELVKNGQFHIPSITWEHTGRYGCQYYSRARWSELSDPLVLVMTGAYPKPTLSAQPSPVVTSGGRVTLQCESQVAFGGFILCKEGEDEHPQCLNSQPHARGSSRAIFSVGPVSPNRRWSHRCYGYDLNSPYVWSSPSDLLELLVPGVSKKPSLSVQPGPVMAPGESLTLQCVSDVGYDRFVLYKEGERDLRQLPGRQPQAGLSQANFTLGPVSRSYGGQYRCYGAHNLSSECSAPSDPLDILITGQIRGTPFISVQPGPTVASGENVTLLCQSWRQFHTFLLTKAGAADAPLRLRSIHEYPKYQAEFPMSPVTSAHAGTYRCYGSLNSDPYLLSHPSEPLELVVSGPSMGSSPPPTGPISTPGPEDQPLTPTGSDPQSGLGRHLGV
Put plainly: Octet off-rate ranking. (BLI is a label-free optical method that tracks binding on a fibre tip over time.)
Excerpt: (§1) Binding affinity of anti-LILRB1 and anti-LILRB2 antibodies against human LILRB1, LILRB2, LILRA1, LILRA2 and cynomolgus LILRB2 was ranked by measuring dissociation rate constant (Kdis) using the Octet system.
Turning to B1, the koff is 0.000966 s⁻¹. For the molecule B2, the koff amounted to 0.000895 s⁻¹. On the same count and under the same terms, for B3 the value was 0.000244 s⁻¹; for B4, 0.0012 s⁻¹.

B5 registered a koff of 0.002 s⁻¹. In turn, B6 gave a koff of 0.00126 s⁻¹.

As to B7, the koff came out at 0.000876 s⁻¹. The same measure, in the same setting: for B8 the value was 8.84e-05 s⁻¹. Same read-out and setting: for B9 the value was 0.000926 s⁻¹; for B10, 0.000302 s⁻¹. Regarding B11, the koff is 0.000174 s⁻¹. Consider B12, for which the koff came out at 0.00139 s⁻¹. On the same count and under the same terms, the result for B13 reads 1e-07 s⁻¹. Still for that read-out and setting: for B14 the value was 5.5e-05 s⁻¹; for B15, 0.00153 s⁻¹.

The target in a further assay is T2, human LILRB1 (human, UniProt Q8NHL6 24-458, limits assumed).
T2 construct: also called hLILRB1
T2 sequence (Q8NHL6 24-458 limits assumed): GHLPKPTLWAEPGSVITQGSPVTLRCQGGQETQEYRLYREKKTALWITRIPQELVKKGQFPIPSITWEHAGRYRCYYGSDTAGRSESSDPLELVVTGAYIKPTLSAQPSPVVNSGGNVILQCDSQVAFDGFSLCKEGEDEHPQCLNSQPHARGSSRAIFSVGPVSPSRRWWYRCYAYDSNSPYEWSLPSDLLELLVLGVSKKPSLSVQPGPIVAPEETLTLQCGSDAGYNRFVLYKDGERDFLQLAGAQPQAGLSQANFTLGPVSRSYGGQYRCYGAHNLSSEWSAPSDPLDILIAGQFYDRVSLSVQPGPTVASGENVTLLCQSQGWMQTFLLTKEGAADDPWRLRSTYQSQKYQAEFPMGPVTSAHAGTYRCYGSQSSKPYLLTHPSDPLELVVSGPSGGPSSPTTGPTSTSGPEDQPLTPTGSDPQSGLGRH
The experiment in a line: Octet off-rate ranking.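 Note: antibody dissociation rate constants against cynomolgus LILRB2 plus human LILRB1, LILRB2, LILRA1 and LILRA2, measured on an Octet instrument to rank binding.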
Excerpt: as §1
In the case of B3, the koff turned out to be 0.000205 s⁻¹. B13 came in with an off-rate constant (koff) of 4.85e-05 s⁻¹. Same read-out and setting: for B14 the value was 0.000238 s⁻¹; for B15, 4.64e-05 s⁻¹.
